{
  "source": "patent US20230406933A1",
  "about": "(RANDOX LABORATORIES, published 2023)",
  "binders": {"B1": {"name": "humanised 32.1A1 clone (VHH)", "VHH": "QVQLVESGGGLVQPGGSLRLSCAASGRTFREYGMGWFRQAPGKGLEWVATISSSGSYSYYADSVKGRFTISRDNSKNTLYLQMNSLRAEDTAVYYCAASSLLRGSSSRAESYDSWGQGTLVTVSS", "notes": "CDRs of 32.1A1 grafted into a model human VH3 framework; Expressed from pScreen, purified by IMAC, detected with anti-Myc HRP; also called hum-32.1A1; hum32.1A1"}},
  "key": {"[1]": {"molecular_target": "T1, PDL1 coated in the commercial PD1:PDL1 inhibition assay (Acro Biosystems Cat# EP-101) (Homo sapiens (Human), UniProt Q9NZQ7 19-238)", "T1 construct": "Kit reagent; construct not described", "assay": "Acro Biosystems PD1:PDL1 inhibition assay; PDL1 coated, biotinylated PD1 as competitor; reference Avelumab"}, "[2]": {"molecular_target": "PD-L1 on the cell surface in the Promega PD1/PD-L1 Blockade Bioassay (Cat# J1250)", "assay": "cell-based or functional assay"}},
  "data": [
    {"binder": "B1", "values": [
      {"measurement": "amount of blocking relative to Avelumab", "setting": "[1]", "result": 10, "unit": "fold"},
      {"measurement": "EC50 of luciferase activity fold change, Promega PD-1/PD-L1 blockade bioassay, panel GS542", "setting": "[2]", "result": 0.165, "unit": "µg/mL"}
    ]}
  ]
}
